# Measurements as given in publication PMC3724861.
# Biological target: T1, Caup homeodomain (Drosophila melanogaster) (UniProt P54269)
# T1 sequence: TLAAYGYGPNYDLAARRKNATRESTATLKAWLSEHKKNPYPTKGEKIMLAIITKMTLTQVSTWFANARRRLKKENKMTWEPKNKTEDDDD
# Details: PBM
row,Sequence,binding signal (minimum E-score of the two 8-mers)
1,AACATGTAA (double strand) [9-mer AACATGTAA],0.468
2,AACATGTAC (double strand) [9-mer AACATGTAC],0.48
3,AACATGTAG (double strand) [9-mer AACATGTAG],0.476
4,AACATGTAT (double strand) [9-mer AACATGTAT],0.469
5,ACATGTACA (double strand) [9-mer ACATGTACA],0.469
6,ATACATGTA (double strand) [9-mer ATACATGTA],0.469
7,ATACATGTC (double strand) [9-mer ATACATGTC],0.469
8,ATGTACATG (double strand) [9-mer ATGTACATG],0.469
9,CTACATGTA (double strand) [9-mer CTACATGTA],0.476
10,CTACATGTC (double strand) [9-mer CTACATGTC],0.476
11,GACATGTAA (double strand) [9-mer GACATGTAA],0.468
12,GACATGTAC (double strand) [9-mer GACATGTAC],0.477
13,GTACATGTA (double strand) [9-mer GTACATGTA],0.48
14,TACATGTAA (double strand) [9-mer TACATGTAA],0.468
15,TACATGTCA (double strand) [9-mer TACATGTCA],0.461
